Reference: patent publication US20180111996A1

Experiments:
[1] = molecular target: human PD-1 (hPD-1) receptor expressed on cells (human) (UniProt Q15116); experiment: FMAT, blockade of labeled hPD-L1/Fc binding to CHO-hPD-1 cells
[2] = molecular target: hPD-1/Fc (R & D Systems) (human) (UniProt Q15116); experiment: bio-light interferometry (ForteBio Octet), PD-1/Fc on biosensor
[3] = molecular target: human PD-1 (hPD-1) receptor expressed on cells (human) (UniProt Q15116); experiment: FACS, blockade of hPD-L1/Fc binding to CHO cells expressing human PD-1
[4] = molecular target: human PD-1 (hPD-1) receptor expressed on cells (human) (UniProt Q15116); experiment: as above; remark: listed apart in the source
[5] = molecular target: human PD-1 (hPD-1) receptor expressed on cells (human) (UniProt Q15116); experiment: CELISA on CHO-hPD-1 cells
[6] = molecular target: human PD-1 (hPD-1) receptor expressed on cells (human) (UniProt Q15116); experiment: FMAT, blockade of labeled hPD-L2/Fc binding to CHO-hPD-1 cells
[7] = molecular target: hPD-1/Fc (R & D Systems) (human) (UniProt Q15116); experiment: protein ELISA, hPD-1/Fc immobilized

Chain of hPD-1/Fc (R & D Systems) (human) (Q15116 25-167 limits assumed): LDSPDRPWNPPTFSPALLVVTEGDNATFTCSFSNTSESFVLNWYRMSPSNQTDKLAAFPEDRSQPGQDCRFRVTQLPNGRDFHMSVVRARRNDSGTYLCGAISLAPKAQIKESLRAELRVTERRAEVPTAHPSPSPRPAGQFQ
Chain of human PD-1 (hPD-1) receptor expressed on cells (human) (Q15116 25-288): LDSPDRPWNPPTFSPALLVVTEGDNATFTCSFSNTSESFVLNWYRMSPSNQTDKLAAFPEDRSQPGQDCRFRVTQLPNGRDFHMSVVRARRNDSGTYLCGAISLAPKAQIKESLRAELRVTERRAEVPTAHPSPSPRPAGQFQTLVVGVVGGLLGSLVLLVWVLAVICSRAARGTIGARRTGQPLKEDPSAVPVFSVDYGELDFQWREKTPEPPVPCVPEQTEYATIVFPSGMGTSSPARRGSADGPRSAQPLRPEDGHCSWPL

Anti-PD-1 antibody clone J116 (eBioscience #14-9989)
IC50 [1]: > 0.1 nM
Kd [2]: 1.82 nM
koff [2]: 0.00015 s⁻¹
kon [2]: 82400 M⁻¹ s⁻¹
IC50 [3]: > 100 nM
IC50 [4]: 0.106 nM
EC50 [5]: 0.349 nM
IC50 [6]: 0.044 nM
EC50 [7]: 0.41 nM
